Test results: US20250009896A1, “SUPR[…] BASED VIRAL […] CAPTURE FOR PREVENTION AND THERAPY OF VIRAL INFECTION” (The Johns Hopkins University, priority 2023, published 2025)

Assays:
[1] = target: T1, Recombinant human angiotensin-converting enzyme 2 (ACE2) protein, carrier-free (R&D Systems) (human), Q9BYF1
[2] = target: T1, Recombinant human …; assay: calculated reference value for the zeta potential of the mixture

T1 sequence (Q9BYF1 18-740 limits assumed): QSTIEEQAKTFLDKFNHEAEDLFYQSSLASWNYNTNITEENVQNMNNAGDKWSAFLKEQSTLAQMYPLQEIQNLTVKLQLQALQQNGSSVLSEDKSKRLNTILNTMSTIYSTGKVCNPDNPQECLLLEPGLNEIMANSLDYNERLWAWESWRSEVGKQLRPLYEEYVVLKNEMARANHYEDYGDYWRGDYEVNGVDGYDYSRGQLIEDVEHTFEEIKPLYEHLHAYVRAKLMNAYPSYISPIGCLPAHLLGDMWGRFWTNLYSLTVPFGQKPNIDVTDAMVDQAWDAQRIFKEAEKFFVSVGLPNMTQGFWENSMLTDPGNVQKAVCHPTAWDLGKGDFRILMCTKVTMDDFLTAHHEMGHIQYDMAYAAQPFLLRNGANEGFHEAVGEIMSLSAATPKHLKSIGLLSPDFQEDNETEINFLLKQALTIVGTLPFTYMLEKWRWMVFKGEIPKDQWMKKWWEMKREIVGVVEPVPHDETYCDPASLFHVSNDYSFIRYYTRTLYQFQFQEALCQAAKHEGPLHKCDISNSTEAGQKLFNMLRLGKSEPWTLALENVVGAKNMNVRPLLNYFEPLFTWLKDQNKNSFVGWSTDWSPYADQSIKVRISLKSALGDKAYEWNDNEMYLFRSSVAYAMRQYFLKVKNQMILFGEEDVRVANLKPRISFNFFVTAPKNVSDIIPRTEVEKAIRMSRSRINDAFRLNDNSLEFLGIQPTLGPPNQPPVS

VVVGKKGGYPKYPCTGSGSDGDELCGWYPHWPYR (modifications not checked) [sLigand peptide amphiphile (scrambled analog of Ligand)]
zeta potential of the mixture, measured [1]: -19.2 mV
intensity-averaged zeta potential calculated assuming no interaction [2]: -19 mV
